Ends that are not written are not given here.
Biological target: T1, AlPI (Homo sapiens, UniProt P01009)
T1 construct: Eff; II+III is a process intermediate in the Cohn plasma fractionation process; tissue Bayer Corporation (Clayton, N.C.); host or cells: plasma fraction: Cohn Effluent II+III
Assay: Effect of peptide density on AlPI capture from Eff. II+III, 4M GdnHCl final strip
Assay type: binding
Conditions: 4° C.; for Mass AlPI per Eluate Fraction, 1M NaCl / Mass AlPI per Eluate Fraction, Flowthrough / Mass AlPI per Eluate Fraction, 4M GdnHCl: * Below detection limit
Procedure: The substitution density of the peptide VIFLVR (SEQ ID NO:37) on the Tosohaas resin was reduced by the varying the ratio of Fmoc-L-Ala/Boc-L-Ala following linkage of the Totda linker. A similar procedure was outlined previously (Buettner et al. 1997). The peptide was then synthesized onto these resins. A 1.0 ml aliquot of neat Eff. II+III was injected onto the columns, and the chromatography cycle was the same as used for other studies involving Eff. II+III. The one exception was the use of 4M guanidine hydrochloride (GdnHCl) in lieu of 2% acetic acid as the final strip.

T1 sequence (P01009 25-418): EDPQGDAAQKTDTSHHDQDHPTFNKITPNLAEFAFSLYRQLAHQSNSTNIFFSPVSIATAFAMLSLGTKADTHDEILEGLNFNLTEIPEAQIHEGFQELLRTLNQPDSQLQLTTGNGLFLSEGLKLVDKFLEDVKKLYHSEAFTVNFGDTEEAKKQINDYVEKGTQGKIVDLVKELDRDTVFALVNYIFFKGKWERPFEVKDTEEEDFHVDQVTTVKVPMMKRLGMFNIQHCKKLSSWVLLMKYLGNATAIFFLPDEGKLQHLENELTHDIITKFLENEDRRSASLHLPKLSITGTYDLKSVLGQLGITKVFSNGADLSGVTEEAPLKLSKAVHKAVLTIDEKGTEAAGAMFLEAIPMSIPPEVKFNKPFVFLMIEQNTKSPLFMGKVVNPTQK

In the case of VIFLVR, the “Percent Eluted by Fraction, 1M NaCl” value (peptide density 6 μmol/g) is reported as 12%, the “Percent Eluted by Fraction, 4M GdnHCl” value (peptide density 6 μmol/g) is reported as 0% and the “Percent Eluted by Fraction, Flowthrough” value (peptide density 6 μmol/g) is reported as 88%. The “Mass AlPI per Eluate Fraction, 1M NaCl” value (peptide density 6 μmol/g) was 0.09 mg, the “Mass AlPI per Eluate Fraction, Flowthrough” value (peptide density 6 μmol/g) was 0.69 mg and the “Percent Eluted by Fraction, 1M NaCl” value (peptide density 17 μmol/g) was 44%. For the same substance, the “Percent Eluted by Fraction, 4M GdnHCl” value (peptide density 17 μmol/g) was 7%, the “Percent Eluted by Fraction, Flowthrough” value (peptide density 17 μmol/g) was 49% and the “Mass AlPI per Eluate Fraction, 1M NaCl” value (peptide density 17 μmol/g) was 0.36 mg. The “Mass AlPI per Eluate Fraction, 4M GdnHCl” value (peptide density 17 μmol/g) was 0.05 mg, the “Mass AlPI per Eluate Fraction, Flowthrough” value (peptide density 17 μmol/g) was 0.39 mg and the “Percent Eluted by Fraction, 1M NaCl” value (peptide density 54 μmol/g) was 0%. The “Percent Eluted by Fraction, 4M GdnHCl” value (peptide density 54 μmol/g) was 74%, the “Percent Eluted by Fraction, Flowthrough” value (peptide density 54 μmol/g) was 26% and the “Mass AlPI per Eluate Fraction, 4M GdnHCl” value (peptide density 54 μmol/g) was 0.57 mg. The “Mass AlPI per Eluate Fraction, Flowthrough” value (peptide density 54 μmol/g) was 0.20 mg, the “Percent Eluted by Fraction, 1M NaCl” value (peptide density 62 μmol/g) was 0% and the “Percent Eluted by Fraction, 4M GdnHCl” value (peptide density 62 μmol/g) was 83%. The “Percent Eluted by Fraction, Flowthrough” value (peptide density 62 μmol/g) was 17%, the “Mass AlPI per Eluate Fraction, 4M GdnHCl” value (peptide density 62 μmol/g) was 0.70 mg and the “Mass AlPI per Eluate Fraction, Flowthrough” value (peptide density 62 μmol/g) was 0.14 mg. The “Percent Eluted by Fraction, 1M NaCl” value (peptide density 70 μmol/g) was 0%, the “Percent Eluted by Fraction, 4M GdnHCl” value (peptide density 70 μmol/g) was 72% and the “Percent Eluted by Fraction, Flowthrough” value (peptide density 70 μmol/g) was 28%. The “Mass AlPI per Eluate Fraction, 4M GdnHCl” value (peptide density 70 μmol/g) was 0.69 mg, the “Mass AlPI per Eluate Fraction, Flowthrough” value (peptide density 70 μmol/g) was 0.26 mg and the “Percent Eluted by Fraction, 1M NaCl” value (peptide density 100 μmol/g) was 0%. For the same substance, the “Percent Eluted by Fraction, 4M GdnHCl” value (peptide density 100 μmol/g) was 82%, the “Percent Eluted by Fraction, Flowthrough” value (peptide density 100 μmol/g) was 18% and the “Mass AlPI per Eluate Fraction, 4M GdnHCl” value (peptide density 100 μmol/g) was 0.57 mg. The “Mass AlPI per Eluate Fraction, Flowthrough” value (peptide density 100 μmol/g) was 0.13 mg.
